Series [1] addresses T1, Gac (C-terminal domain of GyrA, recombinant) (Borrelia burgdorferi B31) (UniProt O51396).
T1 sequence: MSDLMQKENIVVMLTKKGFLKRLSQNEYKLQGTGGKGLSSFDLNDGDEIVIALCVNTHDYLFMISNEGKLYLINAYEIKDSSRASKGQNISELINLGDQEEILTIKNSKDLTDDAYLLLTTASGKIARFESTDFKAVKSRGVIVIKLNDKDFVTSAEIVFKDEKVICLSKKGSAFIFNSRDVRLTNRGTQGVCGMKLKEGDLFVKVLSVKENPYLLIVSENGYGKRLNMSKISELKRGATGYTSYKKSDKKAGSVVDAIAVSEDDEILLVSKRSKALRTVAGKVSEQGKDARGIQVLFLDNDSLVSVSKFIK
The series is described as follows: competition.

Series [2] deals with T1, Gac (C-terminal domain of GyrA, recombinant) (Borrelia burgdorferi B31). The series can be described thus: competition. The source holds these as a separate data set.

Read-outs that look alike come from different tables or passages of the source. Some results are limits rather than exact numbers.

Turning to Ip89 ospC operator/promoter unlabeled, the binding signal (fold reduction of shift) in series [1] was 2; in series [2], over 8.

For empty pCR2.1 amplicon, the binding signal (fold change of shift) in series [1] is under 1.3.

For B31 ospC operator/promoter unlabeled, the binding signal (fold reduction of shift) in series [1] was 2.6.
